One may read the stoichiometry N as the number of molecules, sites or subunits per partner or assembly.

Our source for the stoichiometry N values is article PMC7978432.

For the assay, the target named is SARS-CoV-2 S2GΔHR2-5GS-1TD0 (SARS-CoV-2 | not stated) (UniProt P0DTC2). Put plainly: native gel or EMSA. On the technique in general: In EMSA bound probe runs differently from free probe, usually more slowly.

On to “SARS-CoV-2 S2GΔHR2-5GS-1TD0 (from UniProt P0DTC2 14-1149)”, for which the stoichiometry N amounted to 3.
